Assay results published in patent US6303339A, “DNA segments encoding autoimmune polypeptide epitopes of Ro/ss-A antigen” (Board of Regents, The University of Texas System, priority 1991, dated 2001).

Tests used:
[1] = cited from earlier work
[2] = system: anti-Ro/SS-A antibodies (human autoimmune serum); assay: ELISA, immobilized peptide reacted with human autoimmune anti-Ro/SS-A serum; format: binding
From the text: Human antisera. Anti-Ro/SS-A sera were selected by the presence of a single precipitin line in Ouchterlony analysis having complete identify with prototypic sera used in studies of Lieu et al. (17). The absence of antibodies to other nuclear antigens such as La/SS-B, U1 -RNP and Sm was also confirmed by ELISA. Monospecific anti-Sm and anti-La/SS-B human autoimmune sera were originally obtained from the laboratory of Dr. E. M. Tan (Scripps Research Institute, La Jolla, Calif.).
The native Ro/SS-A antigen (5 ug/ml) or synthetic peptide (10 ug/ml) in PBS was added to wells of a microtiter plate and incubated 16 hours at 4° C. The plates were washed with PBS-Tween and the remaining sites were coated with 1% BSA for 1 hour. After washing 3 times with PBS-Tween, sera diluted with 1% BSA, 0.5% bovine gamma globulin (BGG) in PBS-Tween were added and incubated for 2 hours. The plates were then washed 3 times with PBS-Tween. Peroxidase conjugated goat-anti-human IgG diluted 1:3000 in PBS-Tween containing 1% BSA and 0.5% BGG was added and incubated for 2 hours at room temperature. The plates were washed in a similar manner. […] The optical density was measured using a Titertek Multiskan brand ELISA plate reader.

binding to anti-Ro/SS-A serum in ELISA (in words) [2]	Molecule	isoelectric point measured from the native purified protein [1]
–	native purified protein: native 60 kD Ro protein purified from the human Wil-2 cell line	4.67
did not react	ribonuclease A (protein, UniProt P61823 27-150, looked up, control polypeptide in ELISA) Ribonuclease pancreatic: KETAAAKFERQHMDSSTSAASSSNYCNQMMKSRNLTKDRCKPVNTFVHESLADVQAVCSQKNVACKNGQTNCYQSYSTMSITDCRETGSSKYPNCAYKTTQANKHIIVACEGNPYVPVHFDASV	–
